The supplement of paper PMC9732359
± gives the uncertainty stated by the source.

experiment: protein stability index of a GFP-peptide fusion (yeast GPS) (PSI 1-4); higher = more stable; sorted into four equal gates, so the index is relative within each strain; details: san1∆
Outline: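 Tiled 17-residue yeast protein peptides were fused downstream of GFP in a plasmid that also expresses Cherry, and the pooled library was carried in yeast. Mid-log cultures in leucine-free medium were sorted into four equal gates by GFP/Cherry fluorescence ratio, and plasmids from each gate were PCR-amplified and Illumina-sequenced, with reads assigned to strains by barcodes. The protein stability index for each peptide was each gate's read frequency times its gate number, summed.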

Going from ILKSPHLSKSPADRPQG [SIR4] to ILMGFTLKDNIVVMDCF [RRI1], the protein stability index rises from 2.33 ± 0.056 to 2.74 ± 0.12.

Going from ILNDSLIYHLKDCAEVD [IRR1] to ILNELQPNARALERYDE [SMC1], the protein stability index rises from 2.02 ± 0.09 to 3.27 ± 0.078.

Going from ILNINNSTSKNTLLQQQ [SWI1] to ILNSIPAAANLDALVDC [YJL039C/NUP192], the protein stability index rises from 2 ± 0.069 to 2.39 ± 0.067.

Compared with ILPDSLNLDSLLVDQKQ [SMD1], ILQYFEKWISSKNSKLS [SIR3] is lower in protein stability index: 3.21 ± 0.074 for the first, 2 ± 0.26 for the second.

Going from ILQYSRTWYESFCGFLL [YJR042W/NUP85] to ILRKPGKDCKLQNLQRI [RRI2], the protein stability index rises from 1.39 ± 0.14 to 3.14 ± 0.096.

First: ILRQRGPGFKFVDLNEK [SRB4]
Second: ILRRQAILRQQQQMANN [GAL11]
The protein stability index of the first is lower: 1.44 ± 0.21 for the first, 2.62 ± 0.18 for the second.

Compared with ILVGGTLKDYQIKGLQW [SNF2], ILYGPPGTGKTLLARAV [RPT6] is higher in protein stability index: 3.01 ± 0.056 for the first, 3.35 ± 0.16 for the second.

Going from ILYTSKIVFILDSDSEN [RRI2] to IMFNHARIIRSELLARD [RGR1], the protein stability index rises from 1.43 ± 0.09 to 2.62 ± 0.14.

Compared with IMLLQLELGSCFSQENI [SIN4], INAVLVNDNDERAARVV [RPO31] is higher in protein stability index: 2.52 ± 0.067 for the first, 2.94 ± 0.097 for the second.

INGEPSIHVNRVERSSR [RRI1] and INHEDGFIETTELLNIY [RPN3] are within error of each other in protein stability index: 3.1 ± 0.053 for the first, 3.09 ± 0.072 for the second.

INIAQMSACVGQQSVEG [RPO21] and INKLMEKDFQVNKEIKP [SIR4] are within error of each other in protein stability index: 3.22 ± 0.17 for the first, 3.16 ± 0.069 for the second.

Compared with INLTKVTQKDICILGIL [CSI1], INSGTNSANGSSLNGTN [SSN3] is lower in protein stability index: 3.03 ± 0.059 for the first, 2.82 ± 0.05 for the second.

Compared with INVVIKASRKSVGLPSK [ECM29], IPDIGDLPDTEGLELLG [PRP8] is higher in protein stability index: 1.95 ± 0.24 for the first, 3.35 ± 0.063 for the second.

IPGEYVTYALSGYVRSR [RPS21A] and IPHIFYSLHQIRKDPNN [CSE2] are within error of each other in protein stability index: 2.61 ± 0.21 for the first, 2.5 ± 0.058 for the second.

Compared with IPPLNKSLAMEHKSQVV [CSN12], IPSAAFNFFEPIKEAKI [YMR129W/POM152] is higher in protein stability index: 1.49 ± 0.12 for the first, 2.15 ± 0.044 for the second.

Going from IQDTLRTGSQSPPSSSQ [MED7] to IQEFQGNPYIELNQDRL [SNF5], the protein stability index rises from 2.77 ± 0.043 to 3.24 ± 0.06.

First: IQGFYWAVKEGPLAEEP [SNU114]
Second: IQHIAAAMVPFIKFKLI [CDC53]
The protein stability index of the first is lower: 1.27 ± 0.21 for the first, 2.42 ± 0.056 for the second.

First: IQLPASLAATYSMISLQ [ARP9]
Second: IQLQEFLLSAMTMASKS [NSL1]
The protein stability index of the first is higher: 2.29 ± 0.1 for the first, 1.81 ± 0.09 for the second.

Going from IQNDEEYDTPALFFDPS [PRP8] to IQPKNSDDQQEAVELVI [YML103C/NUP188], the protein stability index rises from 2.73 ± 0.085 to 3.4 ± 0.13.

First: IQRGRILPTDGSAEFNV [RPB7]
Second: IRAIRKVISEILTREVQ [RPS1B]
The protein stability index of the first is higher: 3.03 ± 0.081 for the first, 1.25 ± 0.08 for the second.

IRGIVKQIVHDSGRGAP [RPL2A] and IRLAKTLKKNNVAVDII [RPN10] are within error of each other in protein stability index: 2.79 ± 0.047 for the first, 2.92 ± 0.12 for the second.

Compared with IRPDGRLPHQFRPIEIF [RRP42], IRRAYLHYIPKYNRYEK [RPS11A] is higher in protein stability index: 1.35 ± 0.12 for the first, 1.81 ± 0.1 for the second.

First: ISEEETTVKPLFQNVPE [YAR002W/NUP60]
Second: ISEFDSFTDILKSAIRD [RPN12]
The protein stability index of the first is higher: 3.23 ± 0.043 for the first, 3.04 ± 0.11 for the second.

First: ISFVLGVRSNHLRSNIL [SMC1]
Second: ISGDISDMQHIERLLKD [PRE4]
The protein stability index of the first is lower: 2.08 ± 0.097 for the first, 3.13 ± 0.14 for the second.

Going from ISKKLQFSYLSSTLGID [PCI8] to ISKNPSNGIFYGPSFTK [SIR2], the protein stability index rises from 1.49 ± 0.097 to 2.76 ± 0.059.

Going from ISLLALPHSPLWELALA [YML031W/NDC1] to ISNGNLATGPNLTSEIE [YOR098C/NUP1], the protein stability index rises from 1.34 ± 0.11 to 3.17 ± 0.06.

Going from ISQPKSMSGRISAKDMG [BRR2] to ISQSQLGKFKNIIASPL [SIN4], the protein stability index falls from 3.08 ± 0.058 to 2.01 ± 0.088.

ISSHSHPVSLISFAIYS [RRP42] and ISTHLKTICNLLISDTE [IRR1] are within error of each other in protein stability index: 1.86 ± 0.075 for the first, 1.88 ± 0.088 for the second.

First: ISTVIEVNREEAIGFIR [SMC3]
Second: ITAVHVKIRATGGTRTK [RPS14A]
The protein stability index of the first is higher: 2.86 ± 0.16 for the first, 1.82 ± 0.09 for the second.

First: ITGEKLDTQLNDLRVSL [SMC1]
Second: ITHKLTKNDAGSKQILK [BRR2]
The protein stability index of the first is lower: 1.58 ± 0.18 for the first, 3.21 ± 0.036 for the second.

ITIQDLLFPKSTIVNLA [DPB4] and ITISIHGKPTKGSSLAS [SSN8] are within error of each other in protein stability index: 2.51 ± 0.069 for the first, 2.43 ± 0.079 for the second.

ITKVPALEFLNTTLQDN [REC8] and ITLALSSNPNSSLHSPT [SRB4] are within error of each other in protein stability index: 2.98 ± 0.12 for the first, 2.91 ± 0.047 for the second.

Going from ITLFVLVSVVEAFIASG [FAS2] to ITMESVHEWEVSKPSLL [PRP8], the protein stability index rises from 2.06 ± 0.061 to 3.29 ± 0.066.

Going from ITNDWEQPCVDIISGKI [YJR042W/NUP85] to ITRSFKEPRLVIVTDPR [RPS0A], the protein stability index falls from 3.18 ± 0.053 to 1.98 ± 0.14.

First: IVDTSGRHHQEEELFQE [SRP54]
Second: IVHSSDGHLQFLNDVIP [DLS1]
The protein stability index of the first is higher: 3.07 ± 0.056 for the first, 2.6 ± 0.16 for the second.

Compared with IVKNAEQHNLVKKGPVR [RPS20], IVNGTEKVILVQEQLSK [RET1] is lower in protein stability index: 2.9 ± 0.072 for the first, 1.53 ± 0.11 for the second.

Going from IVSKSIEMYVQEASKQY [RPN2] to IVSPQSNKPCMGIVQDT [RPO21], the protein stability index rises from 1.54 ± 0.088 to 1.76 ± 0.098.

Compared with IVTEQPSAEIREAYIEN [SWP82], IVTPVEKAVEEKPAVKS [RPT3] is higher in protein stability index: 2.74 ± 0.073 for the first, 3.17 ± 0.051 for the second.

Compared with IVVLVPKFGVEGLIRLD [DIS3], IYLSQNELTDAIALAVR [RPN1] is higher in protein stability index: 2.31 ± 0.085 for the first, 2.88 ± 0.039 for the second.

Going from IYRYDEMSNKVLKVDKR [BRR2] to IYYTPAFFHLFASLRVL [YJL039C/NUP192], the protein stability index falls from 2.96 ± 0.038 to 1.43 ± 0.13.

First: KAAGLTAAYARTIGIAV [RPL13A]
Second: KADTDTLLYEQIIQRDK [SNF5]
The protein stability index of the first is lower: 1.22 ± 0.11 for the first, 3.21 ± 0.062 for the second.

Compared with KAEKTLKSTKHSISEAE [SMC4], KAEYVDQYDAERDFYHS [RPO31] is higher in protein stability index: 1.92 ± 0.063 for the first, 3.23 ± 0.097 for the second.

KAGKITTIEEIFLHSLP [RPS2] and KAGLMTGGISGDANNRW [SMC1] are within error of each other in protein stability index: 2.52 ± 0.082 for the first, 2.54 ± 0.062 for the second.

Going from KAGRAFHKYRLKRNSWP [RPL2A] to KAGVKESDTGLAPSHLW [RPT1], the protein stability index rises from 2.13 ± 0.058 to 3.09 ± 0.12.

Compared with KALDELKPEIEKLTSKS [LRP1], KARAKKTKKEKGPNEEE [RPN2] is higher in protein stability index: 2.93 ± 0.068 for the first, 3.43 ± 0.064 for the second.

First: KARFVSKLAEEKIRAAG [RPL28]
Second: KASSTPAGGLFGQASGA [YGL172W/NUP49]
The protein stability index of the first is higher: 2.6 ± 0.028 for the first, 2.19 ± 0.26 for the second.

First: KAYVRLTADYDALDIAN [RPL25]
Second: KCKEVGITAVHVKIRAT [RPS14B]
The protein stability index of the first is higher: 3.17 ± 0.094 for the first, 1.7 ± 0.1 for the second.

Compared with KCNDGVVFAVEKLITSK [PRE10], KDERGEGEAKQKRNAHG [ITC1] is higher in protein stability index: 2.87 ± 0.22 for the first, 3.46 ± 0.098 for the second.

Going from KDGETTDANGKTIVTGG [RPO26] to KDIVNISIPKTCDEIQN [REC8], the protein stability index falls from 3.37 ± 0.059 to 2.54 ± 0.05.

First: KDLENAQVEMKSLEEQE [SMC1]
Second: KDLSNYRKTEGIFEKAK [YMR153W/NUP53]
The protein stability index of the first is higher: 3.37 ± 0.085 for the first, 3.04 ± 0.1 for the second.

same assay, conditions: ubr1∆

Compared with ILEHTLFKGTGFNSWEG [PRP8], ILFELYKIKGRNNSKSV [SRP72] is higher in protein stability index: 1.64 ± 0.039 for the first, 1.76 ± 0.062 for the second.
